Experimental data published in US9782454B2 (LONGEVITY BIOTECH, INC., priority 2010, dated 2017).
Values belong to the molecule of their own block, whether it stands above or below them. Non-standard residues stand in square brackets, D forms with d. No end group written: not given here. ACPC = cyclic beta amino acid; APC = cyclic beta amino acid

Columns and labels:
[1] = target: VIPR2 (VPAC2) receptor, cAMP Hunter cell line expressing VIPR2 (UniProt P41587); experiment: cell-based or functional assay
Sequence of VIPR2 (VPAC2) receptor, cAMP Hunter cell line expressing VIPR2 (P41587 24-438 limits assumed): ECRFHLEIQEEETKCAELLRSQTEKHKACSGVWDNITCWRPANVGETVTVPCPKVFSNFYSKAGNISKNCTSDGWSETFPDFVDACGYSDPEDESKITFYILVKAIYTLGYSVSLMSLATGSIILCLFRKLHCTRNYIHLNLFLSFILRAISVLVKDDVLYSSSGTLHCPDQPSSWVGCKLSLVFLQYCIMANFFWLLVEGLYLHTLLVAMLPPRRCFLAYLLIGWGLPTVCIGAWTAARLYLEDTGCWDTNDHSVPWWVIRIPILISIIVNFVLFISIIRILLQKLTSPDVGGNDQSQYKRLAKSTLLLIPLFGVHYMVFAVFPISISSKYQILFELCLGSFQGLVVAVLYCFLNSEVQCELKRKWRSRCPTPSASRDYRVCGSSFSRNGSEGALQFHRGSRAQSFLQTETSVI

CRF2β = target: T1, CRF2β (Homo sapiens, UniProt Q13324); conditions: cited from earlier work
T1 sequence (Q13324 1-438 isoform Q13324-2): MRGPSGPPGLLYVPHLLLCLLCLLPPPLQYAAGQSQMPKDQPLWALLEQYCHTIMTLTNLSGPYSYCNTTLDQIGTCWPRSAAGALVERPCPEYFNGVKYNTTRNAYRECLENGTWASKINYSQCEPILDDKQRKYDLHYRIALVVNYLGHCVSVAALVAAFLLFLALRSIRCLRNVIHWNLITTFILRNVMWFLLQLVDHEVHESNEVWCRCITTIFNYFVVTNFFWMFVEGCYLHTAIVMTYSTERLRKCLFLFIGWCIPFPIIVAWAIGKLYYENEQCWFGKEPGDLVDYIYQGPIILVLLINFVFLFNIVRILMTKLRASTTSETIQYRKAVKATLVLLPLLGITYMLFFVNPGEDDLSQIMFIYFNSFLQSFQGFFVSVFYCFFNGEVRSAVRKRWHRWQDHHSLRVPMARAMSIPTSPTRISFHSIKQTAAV

CRF2α = target: T2, CRF2α (Homo sapiens, UniProt Q13324); conditions: cited from earlier work
T2 sequence (Q13324 1-411): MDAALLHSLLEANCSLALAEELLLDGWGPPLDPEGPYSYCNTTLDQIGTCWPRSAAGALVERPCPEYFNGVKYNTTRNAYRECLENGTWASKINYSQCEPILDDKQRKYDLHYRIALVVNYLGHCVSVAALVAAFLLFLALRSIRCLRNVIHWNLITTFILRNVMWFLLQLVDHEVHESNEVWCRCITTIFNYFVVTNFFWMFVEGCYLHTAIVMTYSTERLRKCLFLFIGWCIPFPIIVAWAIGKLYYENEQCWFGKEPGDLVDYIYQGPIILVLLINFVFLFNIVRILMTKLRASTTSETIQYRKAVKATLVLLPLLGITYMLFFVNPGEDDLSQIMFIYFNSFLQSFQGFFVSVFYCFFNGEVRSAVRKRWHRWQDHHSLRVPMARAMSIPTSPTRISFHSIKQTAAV

AKT = AKT (Homo sapiens, UniProt P31749); conditions: read-out: Ki, competitive inhibition of histone H2B phosphorylation by AKT; cited from earlier work
Sequence of AKT (P31749 whole entry): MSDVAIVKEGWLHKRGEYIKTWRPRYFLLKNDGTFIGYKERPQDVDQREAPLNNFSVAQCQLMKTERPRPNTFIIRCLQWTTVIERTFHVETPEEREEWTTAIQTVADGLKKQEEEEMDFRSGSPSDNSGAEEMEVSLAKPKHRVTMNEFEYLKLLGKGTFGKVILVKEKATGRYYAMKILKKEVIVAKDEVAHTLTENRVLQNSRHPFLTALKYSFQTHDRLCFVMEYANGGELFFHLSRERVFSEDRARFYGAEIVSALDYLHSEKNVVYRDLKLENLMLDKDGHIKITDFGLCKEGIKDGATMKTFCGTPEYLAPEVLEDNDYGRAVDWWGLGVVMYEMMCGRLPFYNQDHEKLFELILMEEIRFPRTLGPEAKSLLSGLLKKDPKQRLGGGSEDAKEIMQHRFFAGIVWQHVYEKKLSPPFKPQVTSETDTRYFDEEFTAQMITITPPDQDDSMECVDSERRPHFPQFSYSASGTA

[2] = target: T3, VIPR1 (VPAC1) receptor, cAMP Hunter cell line expressing VIPR1 (UniProt P32241 31-457, limits assumed); experiment: cell-based or functional assay
T3 sequence (looked up): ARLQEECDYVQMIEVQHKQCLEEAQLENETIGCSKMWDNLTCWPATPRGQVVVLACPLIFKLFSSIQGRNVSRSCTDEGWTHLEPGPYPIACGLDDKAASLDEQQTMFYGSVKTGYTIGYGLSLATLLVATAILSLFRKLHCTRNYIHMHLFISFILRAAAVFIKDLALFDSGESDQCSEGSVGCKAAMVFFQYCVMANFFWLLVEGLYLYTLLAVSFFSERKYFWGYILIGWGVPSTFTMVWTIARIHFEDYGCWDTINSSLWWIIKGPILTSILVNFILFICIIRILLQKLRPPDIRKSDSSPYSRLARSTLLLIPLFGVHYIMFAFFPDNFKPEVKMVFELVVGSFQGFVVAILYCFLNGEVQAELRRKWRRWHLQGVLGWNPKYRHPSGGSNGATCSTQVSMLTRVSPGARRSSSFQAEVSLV

Molecule: Astressin
- Ki (CRF2β): 1 nM
- Ki (CRF2α): 1.5 nM

Molecule: 5-TMR-ARKRERTYSFGHHA ({5‑TMR}-ARKRERTYSFGHHA)
- Ki (AKT): 12000 nM

The remaining lines, values ahead:

- % Activity, cAMP agonist mode, at 1.00E-07 M (block headed Compound ID 9) [1]: 0.4%
- % Activity, cAMP agonist mode, at 1.00E-08 M (block headed Compound ID 9) [1]: 1.2%
- % Activity, cAMP agonist mode, at 1.00E-09 M (block headed Compound ID 9) [1]: 0.4%
- % Activity, cAMP agonist mode, at 1.00E-10 M (block headed Compound ID 9) [1]: -1.1%
- % Activity, cAMP agonist mode, at 1.00E-11 M (block headed Compound ID 9) [1]: 0.9%
- % Activity, cAMP agonist mode, at 1.00E-12 M (block headed Compound ID 9) [1]: 0.4%
- % Activity, cAMP agonist mode, at 5.00E-07 M (block headed Compound ID 9) [1]: 1.9%
- % Activity, cAMP agonist mode, at 5.00E-08 M (block headed Compound ID 9) [1]: 0.9%
- % Activity, cAMP agonist mode, at 5.00E-09 M (block headed Compound ID 9) [1]: 0.1%
- % Activity, cAMP agonist mode, at 5.00E-10 M (block headed Compound ID 9) [1]: 1.5%
- % Inhibition, cAMP antagonist mode against EC80 VIP, at 1.00E-07 M [1]: 6.5%
- % Inhibition, cAMP antagonist mode against EC80 VIP, at 1.00E-08 M [1]: 9.4%
- % Inhibition, cAMP antagonist mode against EC80 VIP, at 1.00E-09 M [1]: 6.5%
- % Inhibition, cAMP antagonist mode against EC80 VIP, at 1.00E-10 M [1]: 4.2%
- % Inhibition, cAMP antagonist mode against EC80 VIP, at 1.00E-11 M [1]: 8.7%
- % Inhibition, cAMP antagonist mode against EC80 VIP, at 1.00E-12 M [1]: 3.7%
- % Inhibition, cAMP antagonist mode against EC80 VIP, at 5.00E-07 M [1]: 8.4%
- % Inhibition, cAMP antagonist mode against EC80 VIP, at 5.00E-08 M [1]: 6.2%
- % Inhibition, cAMP antagonist mode against EC80 VIP, at 5.00E-09 M [1]: 10.9%
- % Inhibition, cAMP antagonist mode against EC80 VIP, at 5.00E-10 M [1]: 12.7%
- Mean RLU, cAMP agonist mode, at 1.00E-07 M (block headed Compound ID 9) [1]: 8920 RLU
- Mean RLU, cAMP agonist mode, at 1.00E-08 M (block headed Compound ID 9) [1]: 9560 RLU
- Mean RLU, cAMP agonist mode, at 1.00E-09 M (block headed Compound ID 9) [1]: 8560 RLU
- Mean RLU, cAMP agonist mode, at 1.00E-10 M (block headed Compound ID 9) [1]: 7560 RLU
- Mean RLU, cAMP agonist mode, at 1.00E-11 M (block headed Compound ID 9) [1]: 3280 RLU
- Mean RLU, cAMP agonist mode, at 1.00E-12 M (block headed Compound ID 9) [1]: 9300 RLU
- Mean RLU, cAMP agonist mode, at 5.00E-07 M (block headed Compound ID 9) [1]: 10200 RLU
- Mean RLU, cAMP agonist mode, at 5.00E-08 M (block headed Compound ID 9) [1]: 9200 RLU
- Mean RLU, cAMP agonist mode, at 5.00E-09 M (block headed Compound ID 9) [1]: 8560 RLU
- Mean RLU, cAMP agonist mode, at 5.00E-10 M (block headed Compound ID 9) [1]: 3920 RLU
- Mean RLU, cAMP antagonist mode against EC80 VIP, at 1.00E-07 M [1]: 79600 RLU
- Mean RLU, cAMP antagonist mode against EC80 VIP, at 1.00E-08 M [1]: 77500 RLU
- Mean RLU, cAMP antagonist mode against EC80 VIP, at 1.00E-09 M [1]: 79500 RLU
- Mean RLU, cAMP antagonist mode against EC80 VIP, at 1.00E-10 M [1]: 81300 RLU
- Mean RLU, cAMP antagonist mode against EC80 VIP, at 1.00E-11 M [1]: 78000 RLU
- Mean RLU, cAMP antagonist mode against EC80 VIP, at 1.00E-12 M [1]: 81700 RLU
- Mean RLU, cAMP antagonist mode against EC80 VIP, at 5.00E-07 M [1]: 64200 RLU
- Mean RLU, cAMP antagonist mode against EC80 VIP, at 5.00E-08 M [1]: 79500 RLU
- Mean RLU, cAMP antagonist mode against EC80 VIP, at 5.00E-09 M [1]: 76300 RLU
- Mean RLU, cAMP antagonist mode against EC80 VIP, at 5.00E-10 M [1]: 74900 RLU
Molecule: VIP analogue Compound 8 (…XRLZKQLXVKZYLNXILN) (peptide)

- EC50, cAMP agonist mode [2]: 28 nM
B1: VIP analogue Compound 8 (HSDAVFTDNYXRLZKQLXVKZYLNXILN) (peptide)
peptide: HSDAVFTDNY[ACPC]RL[APC]KQL[ACPC]VK[APC]YLN[ACPC]ILN
modifications: ends and bridges not checked
